From paper PMC9708791

Molecular target: PER2 (V5-Per2) (UniProt O15055)
Assay: co-immunoprecipitation of V5-Per2 and HA-GSK3β
Conditions: reference: wild-type HA-GSK3β; sites S9

- binding against the reference: lost
Substance: GSK3β (HA-tagged, Addgene plasmid) (from UniProt P49841) HA-GSK3β S9A
